Data taken from patent publication US20150045540A1 (published 2015).

Tests used:
[1] = molecular target: T1, Placenta Growth Factor (PlGF), human (human, UniProt P49763 21-149); assay: ELISA
T1 chain: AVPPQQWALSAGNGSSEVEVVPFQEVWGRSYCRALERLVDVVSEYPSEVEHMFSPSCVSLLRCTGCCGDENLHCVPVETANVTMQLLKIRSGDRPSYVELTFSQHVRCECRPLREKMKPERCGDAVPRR

[2] = molecular target: Hepatocyte Growth Factor (HGF), human (human, UniProt P14210 32-728); assay: ELISA
Chain of Hepatocyte Growth Factor (HGF), human (P14210 32-728): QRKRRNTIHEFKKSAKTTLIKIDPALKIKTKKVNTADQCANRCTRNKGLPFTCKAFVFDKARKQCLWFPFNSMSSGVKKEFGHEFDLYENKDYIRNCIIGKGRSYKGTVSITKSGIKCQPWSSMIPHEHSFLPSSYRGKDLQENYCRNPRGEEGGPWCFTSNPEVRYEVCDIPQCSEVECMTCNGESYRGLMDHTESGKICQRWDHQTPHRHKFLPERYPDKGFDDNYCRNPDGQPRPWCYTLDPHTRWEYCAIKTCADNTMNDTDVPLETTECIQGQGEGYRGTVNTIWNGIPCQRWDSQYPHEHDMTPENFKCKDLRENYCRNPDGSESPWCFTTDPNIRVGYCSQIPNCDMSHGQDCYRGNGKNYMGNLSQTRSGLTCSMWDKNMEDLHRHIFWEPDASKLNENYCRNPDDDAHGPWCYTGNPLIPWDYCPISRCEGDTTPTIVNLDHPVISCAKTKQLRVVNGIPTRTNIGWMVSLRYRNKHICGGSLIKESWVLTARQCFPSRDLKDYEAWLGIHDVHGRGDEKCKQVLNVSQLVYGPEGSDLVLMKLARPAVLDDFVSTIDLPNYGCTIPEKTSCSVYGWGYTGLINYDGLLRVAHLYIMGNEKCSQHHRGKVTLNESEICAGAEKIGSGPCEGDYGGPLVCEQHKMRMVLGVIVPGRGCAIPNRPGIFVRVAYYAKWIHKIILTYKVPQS

B1: HC 4/SLC 9 (antibody)
chain 1: GQGTLVTVSSASTKQPVLHQPPAMSSALGTTIRLTCTLRNDHDIGVYSVYWYQQRPGHPPRFLLRYFSQSDKSQGPQVPPRFSGSKDVARNRGYLSISELQPEDEAMYYCAMGARSRCWPRGFQSKHNSVTHVFGSGTQLTVLSQPKATPSVTLFPPSSEELQANKATLVCLMNDFYPGILTVTWKADGTPITQGVEMTTPSKQSNNKYAASSYLSLTPEQWRSRRSYSCQVMHEGSTVEKTVAPAECS
chain 2: MSWAPVLLMLFVYCTGCGPQPVLHQPPAMSSALGTTIRLTCTLRNDHDIGVYSVYWYQQRPGHPPRFLLRYFSQSDKSQGPQVPPRFSGSKDVARNRGYLSISVTHVFGSGTQLTVLSQPKATPSVQVQLVQ
In the case of B1, the EC50 [1] is reported as 0.101 nM and the EC50 [2] is reported as 0.045 nM.

B2: HC 10/SLC 9 (antibody)
chain 1: GQGTLVTVSSASTKGPSVFPQPVLHQPPAMSSALGTTIRLTCTLRNDHDIGVYSVYWYQQRPGHPPRFLLRYFSQSDKSQGPQVPPRFSGSKDVARNRGYLSISELQPEDEAMYYCAMGARSRCWPRGFQSKHNSVTHVFGSGTQLTVLSQPKATPSVTLFPPSSEELQANKATLVCLMNDFYPGILTVTWKADGTPITQGVEMTTPSKQSNNKYAASSYLSLTPEQWRSRRSYSCQVMHEGSTVEKTVAPAECS
chain 2: B1 chain 2
With B2 the EC50 [1] was 0.039 nM and the EC50 [2] was 0.053 nM.

B3: HC 2/SLC 3 (antibody)
chain 1: GQGTLVTVSSASQPVLHQPPAMSSALGTTIRLTCTLRNDHDIGVYSVYWYQQRPGHPPRFLLRYFSQSDKSQGPQVPPRFSGSKDVARNRGYLSISELQPEDEAMYYCAMGARSRCWPRGFQSKHNSVTHVFGSGTQLTVLSQPKATPSVTLFPPSSEELQANKATLVCLMNDFYPGILTVTWKADGTPITQGVEMTTPSKQSNNKYAASSYLSLTPEQWRSRRSYSCQVMHEGSTVEKTVAPAECS
chain 2: MSWAPVLLMLFVYCTGCGPQPVLHQPPAMSSALGTTIRLTCTLRNDHDIGVYSVYWYQQRPGHPPRFLLRYFSQSDKSQGPQVPPRFSGSKDVARNRGYLSISVTHVFGSGTQLTVLSQPQVQLVQ
In the case of B3, the EC50 [1] is reported as 0.046 nM and the EC50 [2] is reported as 0.058 nM.

B4: HC 6/SLC 15 (antibody)
chain 1: GQGTLVTVSSASTKGPQPVLHQPPAMSSALGTTIRLTCTLRNDHDIGVYSVYWYQQRPGHPPRFLLRYFSQSDKSQGPQVPPRFSGSKDVARNRGYLSISELQPEDEAMYYCAMGARSRCWPRGFQSKHNSVTHVFGSGTQLTVLSQPKATPSVTLFPPSSEELQANKATLVCLMNDFYPGILTVTWKADGTPITQGVEMTTPSKQSNNKYAASSYLSLTPEQWRSRRSYSCQVMHEGSTVEKTVAPAECS
chain 2: MSWAPVLLMLFVYCTGCGPQPVLHQPPAMSSALGTTIRLTCTLRNDHDIGVYSVYWYQQRPGHPPRFLLRYFSQSDKSQGPQVPPRFSGSKDVARNRGYLSISVTHVFGSGTQLTVLSQPKATPSVTGGGGSQVQLVQ
Binder B4 has an EC50 [1] of 0.046 nM and an EC50 [2] of 0.05 nM.

B5: HC 4/SLC 7 (antibody)
chain 1: B1 chain 1
chain 2: MSWAPVLLMLFVYCTGCGPQPVLHQPPAMSSALGTTIRLTCTLRNDHDIGVYSVYWYQQRPGHPPRFLLRYFSQSDKSQGPQVPPRFSGSKDVARNRGYLSISVTHVFGSGTQLTVLSQPKATPQVQLVQ
For B5, the EC50 [1] was 0.161 nM and the EC50 [2] was 0.059 nM.

B6: HC 7/SLC 9 (antibody)
chain 1: GQGTLVTVSSASTKGPSQPVLHQPPAMSSALGTTIRLTCTLRNDHDIGVYSVYWYQQRPGHPPRFLLRYFSQSDKSQGPQVPPRFSGSKDVARNRGYLSISELQPEDEAMYYCAMGARSRCWPRGFQSKHNSVTHVFGSGTQLTVLSQPKATPSVTLFPPSSEELQANKATLVCLMNDFYPGILTVTWKADGTPITQGVEMTTPSKQSNNKYAASSYLSLTPEQWRSRRSYSCQVMHEGSTVEKTVAPAECS
chain 2: B1 chain 2
With B6 the EC50 [1] was 0.057 nM and the EC50 [2] was 0.048 nM.

B7: HC 7/SLC 4 (antibody)
chain 1: B6 chain 1
chain 2: MSWAPVLLMLFVYCTGCGPQPVLHQPPAMSSALGTTIRLTCTLRNDHDIGVYSVYWYQQRPGHPPRFLLRYFSQSDKSQGPQVPPRFSGSKDVARNRGYLSISVTHVFGSGTQLTVLSQPKQVQLVQ
B7 was tested, and the EC50 [1] was 0.204 nM and the EC50 [2] was 0.065 nM.

B8: HC 5/SLC 7 (antibody)
chain 1: GQGTLVTVSSASTKGQPVLHQPPAMSSALGTTIRLTCTLRNDHDIGVYSVYWYQQRPGHPPRFLLRYFSQSDKSQGPQVPPRFSGSKDVARNRGYLSISELQPEDEAMYYCAMGARSRCWPRGFQSKHNSVTHVFGSGTQLTVLSQPKATPSVTLFPPSSEELQANKATLVCLMNDFYPGILTVTWKADGTPITQGVEMTTPSKQSNNKYAASSYLSLTPEQWRSRRSYSCQVMHEGSTVEKTVAPAECS
chain 2: B5 chain 2
With B8 the EC50 [1] was 0.129 nM and the EC50 [2] was 0.056 nM.

B9: HC 2/SLC 9 (antibody)
chain 1: B3 chain 1
chain 2: B1 chain 2
Binder B9 has an EC50 [1] of 0.195 nM and an EC50 [2] of 0.063 nM.

B10: HC 2/SLC 8 (antibody)
chain 1: B3 chain 1
chain 2: MSWAPVLLMLFVYCTGCGPQPVLHQPPAMSSALGTTIRLTCTLRNDHDIGVYSVYWYQQRPGHPPRFLLRYFSQSDKSQGPQVPPRFSGSKDVARNRGYLSISVTHVFGSGTQLTVLSQPKATPSQVQLVQ
Binder B10 has an EC50 [1] of 0.119 nM and an EC50 [2] of 0.046 nM.

B11: HC 7/SLC 5 (antibody)
chain 1: B6 chain 1
chain 2: MSWAPVLLMLFVYCTGCGPQPVLHQPPAMSSALGTTIRLTCTLRNDHDIGVYSVYWYQQRPGHPPRFLLRYFSQSDKSQGPQVPPRFSGSKDVARNRGYLSISVTHVFGSGTQLTVLSQPKAQVQLVQ
In the case of B11, the EC50 [1] is reported as 0.283 nM and the EC50 [2] is reported as 0.056 nM.

B12: HC 3/SLC 7 (antibody)
chain 1: GQGTLVTVSSASTQPVLHQPPAMSSALGTTIRLTCTLRNDHDIGVYSVYWYQQRPGHPPRFLLRYFSQSDKSQGPQVPPRFSGSKDVARNRGYLSISELQPEDEAMYYCAMGARSRCWPRGFQSKHNSVTHVFGSGTQLTVLSQPKATPSVTLFPPSSEELQANKATLVCLMNDFYPGILTVTWKADGTPITQGVEMTTPSKQSNNKYAASSYLSLTPEQWRSRRSYSCQVMHEGSTVEKTVAPAECS
chain 2: B5 chain 2
Work on B12 yielded an EC50 [1] of 0.159 nM and an EC50 [2] of 0.054 nM.

B13: HC 5/SLC 15 (antibody)
chain 1: B8 chain 1
chain 2: B4 chain 2
B13 gave an EC50 [1] of 0.049 nM and an EC50 [2] of ~0.041 nM.

B14: HC 6/SLC 8 (antibody)
chain 1: B4 chain 1
chain 2: B10 chain 2
Work on B14 yielded an EC50 [1] of 0.073 nM and an EC50 [2] of 0.059 nM.

B15: HC 9/SLC 9 (antibody)
chain 1: GQGTLVTVSSASTKGPSVFQPVLHQPPAMSSALGTTIRLTCTLRNDHDIGVYSVYWYQQRPGHPPRFLLRYFSQSDKSQGPQVPPRFSGSKDVARNRGYLSISELQPEDEAMYYCAMGARSRCWPRGFQSKHNSVTHVFGSGTQLTVLSQPKATPSVTLFPPSSEELQANKATLVCLMNDFYPGILTVTWKADGTPITQGVEMTTPSKQSNNKYAASSYLSLTPEQWRSRRSYSCQVMHEGSTVEKTVAPAECS
chain 2: B1 chain 2
In the case of B15, the EC50 [1] is reported as 0.046 nM and the EC50 [2] is reported as 0.058 nM.
